Article PMC4240464

Assays:
[1] = target: Evasin-4–Fc (Rhipicephalus sanguineus); test: SPR
[2] = target: Fc–Evasin-4 (Rhipicephalus sanguineus); test: SPR
[3] = target: CCL5 (wild type) (human) (UniProt P13501)
[4] = target: CCL24 (human) (UniProt O00175)
[5] = target: CCL22 (human) (UniProt O00626)
[6] = target: CCL11 (human) (UniProt P51671)
Chain of CCL11 (human) (P51671 24-97): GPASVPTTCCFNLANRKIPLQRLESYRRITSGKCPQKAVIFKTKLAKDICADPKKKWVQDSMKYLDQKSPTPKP

Chain of CCL11 (P51671 24-97): as above
Chain of CCL7 (P80098 24-99): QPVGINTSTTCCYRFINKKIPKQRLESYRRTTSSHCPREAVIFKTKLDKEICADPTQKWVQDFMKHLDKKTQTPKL
Chain of CCL3 (P10147 24-92): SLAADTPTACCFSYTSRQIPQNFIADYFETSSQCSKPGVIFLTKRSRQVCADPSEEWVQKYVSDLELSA
Chain of CCL24 (human) (O00175 27-119): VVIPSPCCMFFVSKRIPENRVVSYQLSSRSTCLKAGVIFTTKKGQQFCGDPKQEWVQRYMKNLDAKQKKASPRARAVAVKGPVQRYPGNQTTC
Chain of CCL26 (Q9Y258 24-94): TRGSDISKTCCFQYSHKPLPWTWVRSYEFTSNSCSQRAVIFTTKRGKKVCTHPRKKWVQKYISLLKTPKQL
Chain of CCL8 (P80075 24-99): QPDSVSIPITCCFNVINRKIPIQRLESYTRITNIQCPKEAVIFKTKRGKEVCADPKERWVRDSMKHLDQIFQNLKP
Chain of CCL22 (human) (O00626 25-93): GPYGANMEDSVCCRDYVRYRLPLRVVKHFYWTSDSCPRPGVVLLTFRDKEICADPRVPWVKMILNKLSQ
Chain of CCL5 (wild type) (human) (P13501 24-91): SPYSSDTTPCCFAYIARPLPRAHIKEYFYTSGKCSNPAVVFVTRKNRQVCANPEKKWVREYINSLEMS

Substance	Kd [1] [nM]	Kd [2] [nM]	IC50, inhibition of chemotaxis of L1.2 CCR5 cells to CCL5 (EC80 1 nM) [3] [nM]	IC50, inhibition of chemotaxis of L1.2 CCR3 cells to CCL24 (EC80 10 nM) [4] [nM]	IC50, inhibition of chemotaxis of L1.2 CCR4 cells to CCL22 (EC80 1 nM) [5] [nM]	IC50, inhibition of chemotaxis of L1.2 CCR3 cells to CCL11 (EC80 1 nM) [6] [nM]
CCL3 (from UniProt P10147 24-92) (ligand)	6.79	0.277				
CCL5 E26A (from UniProt P13501 24-91) (ligand)	1.72	0.02				
CCL7 (from UniProt P80098 24-99) (ligand)	0.053	0.134				
CCL8 (from UniProt P80075 24-99) (ligand)	0.015	0.088				
CCL11 (from UniProt P51671 24-97) (ligand)	3.6	0.099				
CCL26 (from UniProt Q9Y258 24-94) (ligand)	15.6	17.3				
Evasin-4–Fc (Fc fusion)			9.6	642	38	1540
Fc–Evasin-4 (Fc fusion)				113		88
